According to patent US20170349663A1 (Memorial Sloan Kettering, published 2017):

Target: full-length human EphA2 protein on cells (human, UniProt P29317 24-976)
Test: cell-based or functional assay

Chain of full-length human EphA2 protein on cells (P29317 24-976): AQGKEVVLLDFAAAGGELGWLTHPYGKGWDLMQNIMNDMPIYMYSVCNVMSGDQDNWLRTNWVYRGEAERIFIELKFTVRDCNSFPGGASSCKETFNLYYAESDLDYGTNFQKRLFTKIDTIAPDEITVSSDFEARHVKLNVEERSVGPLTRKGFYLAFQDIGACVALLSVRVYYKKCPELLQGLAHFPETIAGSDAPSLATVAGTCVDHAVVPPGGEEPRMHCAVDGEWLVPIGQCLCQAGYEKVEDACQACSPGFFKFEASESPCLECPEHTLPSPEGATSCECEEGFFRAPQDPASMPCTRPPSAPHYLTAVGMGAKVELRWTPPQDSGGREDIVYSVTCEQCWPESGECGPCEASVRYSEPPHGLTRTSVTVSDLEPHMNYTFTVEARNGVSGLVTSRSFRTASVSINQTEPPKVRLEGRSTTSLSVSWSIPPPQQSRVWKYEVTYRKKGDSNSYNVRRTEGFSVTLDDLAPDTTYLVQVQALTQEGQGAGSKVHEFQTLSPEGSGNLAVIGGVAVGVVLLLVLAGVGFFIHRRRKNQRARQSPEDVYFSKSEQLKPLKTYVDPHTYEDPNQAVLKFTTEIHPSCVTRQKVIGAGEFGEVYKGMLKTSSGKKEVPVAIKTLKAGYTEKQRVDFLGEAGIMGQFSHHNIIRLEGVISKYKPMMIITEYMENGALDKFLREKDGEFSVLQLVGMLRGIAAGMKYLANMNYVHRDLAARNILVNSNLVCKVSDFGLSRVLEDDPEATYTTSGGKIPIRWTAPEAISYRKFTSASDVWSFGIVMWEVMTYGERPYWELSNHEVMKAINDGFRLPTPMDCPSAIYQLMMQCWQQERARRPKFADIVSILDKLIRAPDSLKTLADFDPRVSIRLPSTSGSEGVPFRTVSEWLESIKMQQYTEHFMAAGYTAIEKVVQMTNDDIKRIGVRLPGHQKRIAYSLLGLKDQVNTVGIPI

B1: anti-EphA2 scFv antibody D2, monomeric scFv-6xHis (scFv)
scFv: EIVLTQSPGTLSLSPGERATLSCRASQSVSSSNLAWYQQKPGQAPRLLIYGASSRATGVPDRFSGSGSGTDFTLTISRLEPEDFAVYYCQQSSSYPWTFGQGTKVEIKRTGGGGSGAGGSGGGGTGGGGSEVQLLESGGGLVQPGGSLRLSCAASGFTFSRYWMHWVRQAPGKGLEWVSSISPYDGETNYADSVKGRFTISRDNSKNTLYLQMNSLRAEDTAVYYCARISEWYNWAVDVFDYWGQGTLVTVSSHHHHHH
decrease in cell number after 72 hours in culture relative to vehicle control treatment, 0.5 ug, EphA2-high AML cells: 52.6% | decrease in cell number after 72 hours in culture relative to vehicle control treatment, 1.0 ug, EphA2-high AML cells: 99.3%
